In patent US20240050600A1, “Radiopharmaceuticals, uses thereof, and methods for the production thereof” (priority 2020, published 2024):

Assay: in vivo
Design: species or system Balb/c nude mice
Conditions: male, Balb/c nude, mouse, iv, total radioactivity
Description: Healthy male Balb/c nude mice (˜18 g) from 8 weeks old were obtained from the ARC and used for this study. Mice were imported into the CAI animal holding facility and monitored for 1 week prior to the study in order to acclimatise to the environment prior to injection of cells. All animals were provided with free access to food and water before and during the imaging experiments which were approved by the University of Queensland Animal Ethics Committee (Approval #AIBN/CAI/105/19/ARC/NHMRC).
8-week-old male Balb/c nude mice were injected (27 G needle) subcutaneously with PC3 ([…]) cells in 50 μL of 50:50 matrigel and cells in phosphate buffered saline into the right flank of each mouse. There was no evidence of ulceration at the time of dosing; the animals were closely monitored and remained in good condition apart from the growth of tumours. […] Labelled peptides were injected via the tail vein (29 G needle; ˜2-3 MBq) and then mice were imaged using the Siemens Inveon PET-CT instrument at the various timepoints.
The injection syringe was filled with the radioisotope solution (approximately 150 μL) and the activity in the syringe was measured using a dose calibrator (Capintec CRC-25) with a calibration factor of 35. The activity left in the syringe after the tail vein injection was measured using the same dose calibrator and the total volume injected in each mouse was calculated.
Organs were excised at 24 hours, with the percentage of injected dose of the administered compound determined by ex vivo gamma counting (Table 2). Values are averages across 4 mice.

[1] = Percentage of injected dose in Blood
[2] = Percentage of injected dose in GI Tract
[3] = Percentage of injected dose in Heart
[4] = Percentage of injected dose in Kidneys
[5] = Percentage of injected dose in Liver
[6] = Percentage of injected dose in Lungs
[7] = Percentage of injected dose in Pancreas
[8] = Percentage of injected dose in Spleen
[9] = Percentage of injected dose in Tail
[10] = Percentage of injected dose in Tumour

| SMILES | tissue uptake at 24 h [1] | tissue uptake at 24 h [2] | tissue uptake at 24 h [3] | tissue uptake at 24 h [4] | tissue uptake at 24 h [5] | tissue uptake at 24 h [6] | tissue uptake at 24 h [7] | tissue uptake at 24 h [8] | tissue uptake at 24 h [9] | tissue uptake at 24 h [10] |
| --- | --- | --- | --- | --- | --- | --- | --- | --- | --- | --- |
| CC(C)C[C@H](NC(=O)C[C@H](O)[C@H](CC(C)C)NC(=O)[C@H](Cc1c[nH]cn1)NC(=O)CNC(=O)[C@@H](NC(=O)[C@H](C)NC(=O)[C@H](Cc1c[nH]c2ccccc12)NC(=O)[C@H](CCC(N)=O)NC(=O)[C@@H](Cc1ccccc1)NC(=O)CCOCCOCCOCCOCCNC(=O)CCCC(=O)NC12CNCCNCC(NC(=O)CCCC(=O)NC(CCCCNC(=O)CCCc3ccc(I)cc3)C(=O)O)(CNCCNC1)CNCCNC2)C(C)C)C(N)=O (stereo partly drawn) [Sar(ABG)(BBN)] | 7.22 ± 0.79 %ID/g | 1.93 ± 0.46 %ID/g | 3.1 ± 0.53 %ID/g | 4.29 ± 0.54 %ID/g | 2.96 ± 0.3 %ID/g | 4.85 ± 0.93 %ID/g | 6 ± 1.17 %ID/g | 2.68 ± 0.33 %ID/g | 2.06 ± 0.3 %ID/g | 22.3 ± 11 %ID/g |
| CC(C)CC(NC(=O)CC(O)C(CC(C)C)NC(=O)C(Cc1c[nH]cn1)NC(=O)CNC(=O)C(NC(=O)C(C)NC(=O)C(Cc1c[nH]c2ccccc12)NC(=O)C(CCC(N)=O)NC(=O)C(Cc1ccccc1)NC(=O)CCOCCOCCOCCOCCNC(=O)CCCC(=O)NC12CNCCNCC(NC(=O)CCCC(=O)NCCOCCOCCOCCOCCC(=O)NC(Cc3ccccc3)C(=O)NC(CCC(N)=O)C(=O)NC(Cc3c[nH]c4ccccc34)C(=O)NC(C)C(=O)NC(C(=O)NCC(=O)NC(Cc3c[nH]cn3)C(=O)NC(CC(C)C)C(O)CC(=O)NC(CC(C)C)C(N)=O)C(C)C)(CNCCNC1)CNCCNC2)C(C)C)C(N)=O (stereo not drawn) [Sar(BBN)2] | 0.1 ± 0.05 %ID/g | 0.44 ± 0.04 %ID/g | 0.21 ± 0.03 %ID/g | 6.81 ± 0.67 %ID/g | 16.8 ± 1.55 %ID/g | 0.36 ± 0.12 %ID/g | 0.84 ± 0.06 %ID/g | 1.47 ± 0.2 %ID/g | 0.28 ± 0.05 %ID/g | 2.13 ± 0.86 %ID/g |
| CC(C)C[C@H](NC(=O)C[C@H](O)[C@H](CC(C)C)NC(=O)[C@H](Cc1c[nH]cn1)NC(=O)CNC(=O)[C@@H](NC(=O)[C@H](C)NC(=O)[C@H](Cc1c[nH]c2ccccc12)NC(=O)[C@H](CCC(N)=O)NC(=O)[C@@H](Cc1ccccc1)NC(=O)CCOCCOCCOCCOCCNC(=O)CCCC(=O)NC12CNCCNCC(N)(CNCCNC1)CNCCNC2)C(C)C)C(N)=O [Sar(BBN)] | 0.13 ± 0.04 %ID/g | 0.3 ± 0.07 %ID/g | 0.24 ± 0.02 %ID/g | 3.55 ± 0.79 %ID/g | 1.52 ± 0.18 %ID/g | 0.31 ± 0.08 %ID/g | 0.23 ± 0.02 %ID/g | 0.38 ± 0.06 %ID/g | 0.56 ± 0.87 %ID/g | 4.09 ± 0.52 %ID/g |
